Reference: patent US11814439 (TG THERAPEUTICS, dated 2023)

How the values were obtained:
Test in all cases: cell-based or functional assay
[1] = target: T1, FcγIIIA Receptor on the effector cells (CD16 / FcγRIII) (human, UniProt P08637 17-254)
[2] = target: T1, FcγIIIA Receptor on the effector cells …; remark: listed apart in the source
[3] = target: T1, FcγIIIA Receptor on the effector cells …; remark: listed apart in the source
[4] = target: C1q Receptor in the complement system (rabbit serum as the source of complement) (rabbit)

T1 sequence (P08637 17-254): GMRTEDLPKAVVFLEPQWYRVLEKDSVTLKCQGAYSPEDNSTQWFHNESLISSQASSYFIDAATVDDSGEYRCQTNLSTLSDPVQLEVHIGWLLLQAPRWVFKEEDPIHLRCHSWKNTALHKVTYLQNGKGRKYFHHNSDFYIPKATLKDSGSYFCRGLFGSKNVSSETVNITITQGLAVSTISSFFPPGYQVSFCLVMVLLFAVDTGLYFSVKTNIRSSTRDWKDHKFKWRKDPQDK

B1: TG-1101 (TG Therapeutics, Inc.) (antibody, human IgG1, kappa)
heavy: not shown
light: QIVLSQSPAILSASPGEKVTMTCRASSSVSYMHWYQQKPGSSPKPWIYATSNLASGVPARFSGSGSGTSYSFTISRVEAEDAATYYCQQWTFNPPTFGGGTRLEIKRTVAAPSVFIFPPSDEQLKSGTASVVCLLNNFYPREAKVQWKVDNALQSGNSQESVTEQDSKDSTYSLSSTLTLSKADYEKHKVYACEVTHQGLSSPVTKSFNRGEC
[1]
  ADCC EC50 (Raji target cells, KILR CD16a effector cells): 0.00242 ng/mL
[2]
  ADCC EC50, fold lower than OCREVUS: ~25 fold
[3]
  EC50 of ADCC assay Using Primary NK Cells: 49000 ng/mL
[4]
  CDC EC50 (Jeko-1 cells, rabbit complement): 670 ng/mL
